From article PMC7002446

Target: transferrin receptor 1 (TfR1) (human (endogenous in gastric cancer patient tissue and human GC cell lines)) (UniProt P02786)
Sequence (P02786 whole entry): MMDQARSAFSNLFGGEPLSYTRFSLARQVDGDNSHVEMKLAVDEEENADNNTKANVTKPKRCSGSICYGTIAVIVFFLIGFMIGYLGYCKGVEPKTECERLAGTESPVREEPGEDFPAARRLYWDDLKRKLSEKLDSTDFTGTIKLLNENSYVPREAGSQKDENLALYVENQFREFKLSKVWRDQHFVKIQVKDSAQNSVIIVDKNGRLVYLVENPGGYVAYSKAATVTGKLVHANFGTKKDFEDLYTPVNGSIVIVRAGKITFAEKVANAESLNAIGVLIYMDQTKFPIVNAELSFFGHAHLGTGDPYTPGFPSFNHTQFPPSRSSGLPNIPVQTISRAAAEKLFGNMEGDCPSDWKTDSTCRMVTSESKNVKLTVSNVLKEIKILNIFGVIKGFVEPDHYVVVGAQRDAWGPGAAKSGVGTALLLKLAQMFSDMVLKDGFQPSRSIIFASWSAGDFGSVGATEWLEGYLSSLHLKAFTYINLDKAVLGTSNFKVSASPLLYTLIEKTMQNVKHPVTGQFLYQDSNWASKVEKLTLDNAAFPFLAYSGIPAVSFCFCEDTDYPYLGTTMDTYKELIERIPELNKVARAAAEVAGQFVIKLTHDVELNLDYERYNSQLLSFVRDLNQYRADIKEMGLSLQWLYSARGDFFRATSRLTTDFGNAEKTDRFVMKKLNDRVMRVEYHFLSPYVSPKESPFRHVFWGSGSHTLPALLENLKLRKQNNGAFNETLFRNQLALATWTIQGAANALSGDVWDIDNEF

Chain of doxorubicin-loaded HFn nanocarrier (HFn-Dox) (P02794 whole entry): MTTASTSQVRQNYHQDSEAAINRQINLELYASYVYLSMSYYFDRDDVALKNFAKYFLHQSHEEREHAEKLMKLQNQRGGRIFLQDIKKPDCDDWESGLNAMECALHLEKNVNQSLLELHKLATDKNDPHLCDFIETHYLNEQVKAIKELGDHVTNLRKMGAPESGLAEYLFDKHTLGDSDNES

tumor growth inhibition (TGI) rate in TfR1-positive GC-PDX mouse models treated with HFn-Dox (against 41.6% for free Dox): 91.1%
Substance: doxorubicin-loaded HFn nanocarrier (HFn-Dox) (from UniProt P02794 1-183) (natural protein)
